In paper doi:10.1101/2024.10.16.618570 (bioRxiv, 2024):

Target: the molecule itself
Experiment: native gel or EMSA

B1: BAK (BCL-2 homologous antagonist/killer), endogenous in mouse liver mitochondria (natural protein, UniProt O08734 1-209, looked up)
chain: MASGQGPGPPKVGCDESPSPSEQQVAQDTEEVFRSYVFYLHQQEQETQGAAAPANPEMDNLPLEPNSILGQVGRQLALIGDDINRRYDTEFQNLLEQLQPTAGNAYELFTKIASSLFKSGISWGRVVALLGFGYRLALYVYQRGLTGFLGQVTCFLADIILHHYIARWIAQRGGWVAALNFRRDPILTVMVIFGVVLLGQFVVHRFFRS
- stoichiometry N: 2
